In experiment [1] the target is platelet glycoprotein receptor Ib (UniProt P07359).
The target is the same in experiment [2]. This is another data set of the same source.

With “von Willebrand factor in plasma (from UniProt P04275 764-2813) (natural protein)”, the VWF:RCo activity in factor VIII-deficient plasmas after addition of purified recombinant factor VIII in experiment [1] was found to be 4 fold. In experiment [2], this substance had a VWF:RCo activity (ristocetin co-factor assay, aggregation of fixed platelets) in factor VIII-deficient plasmas after addition of polyP65 (2.5 and 7.1 µM) of 2 fold.

(Values after publication PMC9692336.)
